Assay results reported in patent CN106146662A (UNIV SUN YAT SEN, dated 2016).

T1: CD3-His蛋白(MP-5)
T1 chain: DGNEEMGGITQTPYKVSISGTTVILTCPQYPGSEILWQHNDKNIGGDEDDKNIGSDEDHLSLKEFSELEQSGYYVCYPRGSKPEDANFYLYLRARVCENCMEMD


What was measured:
CD3-His蛋白(MP-5) = target: T1, CD3-His蛋白(MP-5); experiment: BLI (Octet RED96) off-rate screen, sdAb-SASA from expression medium captured on BSA-coated biosensor, 100 nM CD3 in solution, 1:1 Langmuir model, 30°C
CD3 on Jurkat cells = experiment: flow cytometry, culture supernatant on Jurkat cells

koff (CD3-His蛋白(MP-5)) [s⁻¹] | MFI (CD3 on Jurkat cells) [MFI] | Binder
2.84e-05 | 312 | C84 (VHH, Llama sdAb tested as sdAb-SASA protein in crude expression medium / culture supernatant; 3 nowhere in its text; also called 抗CD3单域抗体; sdAb; not shown: SASA fusion partner from the pFASEBA vector (sdAb-SASA protein)) VHH: QVQLQESGGGLVQAGGYLRLSCAVSGRTFSSYAMGWFRQAPGKEREFVAAINWSGGSTYYVDSVKGRFTISRDNAKNTVYLQMNSLKPEDTAVYYCAASGLGYTIVSASEYDYWGQGTQVTVSS
5.32e-05 | 283 | C62 (VHH, Llama sdAb tested as sdAb-SASA protein in crude expression medium / culture supernatant; 1 nowhere in its text; also called 抗CD3单域抗体; sdAb; not shown: SASA fusion partner from the pFASEBA vector (sdAb-SASA protein)) VHH: QVQLQESGGGLVQAGGSLRLSCAASGRTFSNYHMGWFRQAPGKERELVAAISGSGGSTYYTDSVKGRFTISRNNAKNTMSLQMSNLKPEDTGVYYCTTPTEKGSSIDYWGQGTQVTVSS
